This series has as its target T1, Alpha-2-Macroglobulin.
T1 chain: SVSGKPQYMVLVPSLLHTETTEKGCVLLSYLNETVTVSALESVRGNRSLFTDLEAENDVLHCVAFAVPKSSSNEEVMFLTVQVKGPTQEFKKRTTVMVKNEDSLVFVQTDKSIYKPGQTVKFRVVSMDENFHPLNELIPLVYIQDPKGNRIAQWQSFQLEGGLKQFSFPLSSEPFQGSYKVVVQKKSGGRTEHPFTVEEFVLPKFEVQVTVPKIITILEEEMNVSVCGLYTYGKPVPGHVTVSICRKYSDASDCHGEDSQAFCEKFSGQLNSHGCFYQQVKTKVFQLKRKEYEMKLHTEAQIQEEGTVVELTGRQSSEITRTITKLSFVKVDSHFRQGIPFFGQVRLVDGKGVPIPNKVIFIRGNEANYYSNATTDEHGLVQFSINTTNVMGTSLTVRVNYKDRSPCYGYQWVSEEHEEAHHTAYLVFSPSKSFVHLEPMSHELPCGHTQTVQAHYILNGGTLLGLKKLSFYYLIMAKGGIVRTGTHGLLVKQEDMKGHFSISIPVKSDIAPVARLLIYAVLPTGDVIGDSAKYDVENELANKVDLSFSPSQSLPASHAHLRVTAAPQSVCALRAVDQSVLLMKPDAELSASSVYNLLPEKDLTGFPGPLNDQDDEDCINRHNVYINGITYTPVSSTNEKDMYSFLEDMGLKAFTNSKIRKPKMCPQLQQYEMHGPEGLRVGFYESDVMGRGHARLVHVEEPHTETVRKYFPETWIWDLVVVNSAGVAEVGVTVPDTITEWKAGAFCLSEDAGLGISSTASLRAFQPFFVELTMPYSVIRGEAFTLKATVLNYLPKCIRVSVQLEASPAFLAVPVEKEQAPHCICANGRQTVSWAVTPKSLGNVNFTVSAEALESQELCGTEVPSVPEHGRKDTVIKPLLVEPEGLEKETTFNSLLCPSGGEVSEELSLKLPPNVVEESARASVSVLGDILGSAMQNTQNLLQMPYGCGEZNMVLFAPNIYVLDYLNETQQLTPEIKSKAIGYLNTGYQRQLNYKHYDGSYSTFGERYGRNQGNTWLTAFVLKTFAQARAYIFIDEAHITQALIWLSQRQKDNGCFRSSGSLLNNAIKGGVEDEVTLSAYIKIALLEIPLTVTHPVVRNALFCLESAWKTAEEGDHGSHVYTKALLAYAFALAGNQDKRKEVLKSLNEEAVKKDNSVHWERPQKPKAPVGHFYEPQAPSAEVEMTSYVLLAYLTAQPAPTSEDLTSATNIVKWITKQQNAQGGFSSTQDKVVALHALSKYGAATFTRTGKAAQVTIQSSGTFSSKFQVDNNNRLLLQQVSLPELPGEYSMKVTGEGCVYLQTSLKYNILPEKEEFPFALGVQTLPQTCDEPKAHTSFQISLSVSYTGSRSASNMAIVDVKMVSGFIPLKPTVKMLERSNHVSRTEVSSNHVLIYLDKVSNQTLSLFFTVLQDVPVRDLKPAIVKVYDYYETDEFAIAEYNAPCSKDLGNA

The source of these data is patent publication US20050037432.

B1: ADAMTS-4 (protein)
chain: FASLSRFVETLVVADDKMAAFHGAGLKRYLLTVMAAAAKAFKHPSIRNPVSLVVTRLVILGSGEEGPQVGPSAAQTLRSFCAWQRGLNTPEDSDPDHFDTAILFTRQDLCGVSTCDTLGMADVGTVCDPARSCAIVEDDGLQSAFTAAHELGHVFNMLHDNSKPCISLNGPLSTSRHVMAPVMAHVDPEEPWSPCSARFITDFLDNGYGHCLLDKPEAPLHLPVTFPGKDYDADRQCQLTFGPDSRHCPQLPPPCAALWCSGHLNGHAMCQTKHSPWADGTPCGPAQACMGGRCLHMDQLQDFNIPQAGGWGPWGPWGDCSRTCGGGVQFSSRDCTRPVPRNGGKYCEGRRTRFRSCNTEDCPTGSALTFREEQCAAYNHRTDLFKSFPGPMDWVPRYTGVAPQDQCKLTCQAQALGYYYVLEPRVVDGTPCSPDSSSVCVQGRCIHAGCDRIIGSKKKFDKCMVCGGDGSGCSKQSGSFRKFRYGYNNVVTIPAGATHILVRQQGNPGHRSIYLALKLPDGSYALNGEYTLMPSPTDVVLPGAVSLRYSGATAASETLSGHGPLAQPLTLQVLVAGNPQDTRLRYSFFVPRPTPSTPRPTPQDWLHRRAQILEILRRRPWAGRK
As to B1, the “generation of α2M neoepitopes on digestion (50 ng α2M, 100 ng enzyme, 37° C., 1-30 min)” value is “Both neoepitopes were generated as early as after 2 minutes of incubation, and increased over time, up to after 30 minutes of incubation”.

B2: ADAMTS-5 (protein)
chain: SISRARQVELLLVADASMARLYGRGLQHYLLTLASIANRLYSHASIENHIRLAVVKVVVLGDKDKSLEVSKNAATTLKNFCKWQHQHNQLGDDHEEHYDAAILFTREDLCGHHSCDTLGMADVGTICSPERSCAVIEDDGLHAAFTVAHEIGHLLGLSHDDSKFCEETFGSTEDKRLMSSILTSIDASKPWSKCTSATITEFLDDGHGNCLLDLPRKQILGPEELPGQTYDATQQCNLTFGPEYSVCPGMDVCARLWCAVVRQGQMVCLTKKLPAVEGTPCGKGRICLQGKCVDKTKKKYYSTSSHGNWGSWGSWGQCSRSCGGGVQFAYRHCNNPAPRNNGRYCTGKRAIYRSCSLMPCPPNGKSFRHEQCEAKNGYQSDAKGVKTFVEWVPKYAGVLPADVCKLTCRAKGTGYYVVFSPKVTDGTECRLYSNSVCVRGKCVRTGCDGIIGSKLQYDKCGVCGGDNSSCTKIVGTFNKKSKGYTDVVRIPEGATHIKVRQFKAKDQTRFTAYLALKKKNGEYLINGKYMISTSETIIDINGTVMNYSGWSHRDDFLHGMGYSATKEILIVQILATDPTKPLDVRYSFFVPKKSTPKVNSVTSHGSNKVGSHTSQPQWVTGPWLACSRTCDTGWHTRTVQCQDGNRKLAKGCPLSQRPSAFKQCLLKKC
In the case of B2, the “generation of α2M neoepitopes on digestion (50 ng α2M, 100 ng enzyme, 37° C., 1-30 min)” value is “Both neoepitopes were generated as early as after 2 minutes of incubation, and increased over time, up to after 30 minutes of incubation”.
